Results published in IntAct's records for PubMed 26728129.

B1: Probable proton-coupled zinc antiporter SLC30A3 (Homo sapiens), Q99726 (parent)
chain: MEPSPAAGGLETTRLVSPRDRGGAGGSLRLKSLFTEPSEPLPEESKPVEMPFHHCHRDPLPPPGLTPERLHARRQLYAACAVCFVFMAGEVVGGYLAHSLAIMTDAAHLLADVGSMMGSLFSLWLSTRPATRTMTFGWHRSETLGALASVVSLWMVTGILLYLAFVRLLHSDYHIEGGAMLLTASIAVCANLLMAFVLHQAGPPHSHGSRGAEYAPLEEGPEEPLPLGNTSVRAAFVHVLGDLLQSFGVLAASILIYFKPQYKAADPISTFLFSICALGSTAPTLRDVLRILMEGTPRNVGFEPVRDTLLSVPGVRATHELHLWALTLTYHVASAHLAIDSTADPEAVLAEASSRLYSRFGFSSCTLQVEQYQPEMAQCLRCQEPPQA
partner: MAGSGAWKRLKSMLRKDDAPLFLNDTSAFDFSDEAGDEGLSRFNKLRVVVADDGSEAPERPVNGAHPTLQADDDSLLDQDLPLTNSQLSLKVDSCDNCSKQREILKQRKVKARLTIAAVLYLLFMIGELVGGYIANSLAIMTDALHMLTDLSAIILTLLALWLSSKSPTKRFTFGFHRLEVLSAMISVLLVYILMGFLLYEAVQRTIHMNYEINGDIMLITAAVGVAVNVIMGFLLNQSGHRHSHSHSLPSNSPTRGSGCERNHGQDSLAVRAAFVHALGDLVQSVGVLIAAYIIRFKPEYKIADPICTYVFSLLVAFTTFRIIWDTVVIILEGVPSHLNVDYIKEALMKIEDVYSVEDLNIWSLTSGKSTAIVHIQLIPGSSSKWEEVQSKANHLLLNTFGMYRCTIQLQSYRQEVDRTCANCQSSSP
B2: Calcium/manganese antiporter SLC30A10 (Homo sapiens), Q6XR72 (parent)
chain: MGRYSGKTCRLLFMLVLTVAFFVAELVSGYLGNSIALLSDSFNMLSDLISLCVGLSAGYIARRPTRGFSATYGYARAEVVGALSNAVFLTALCFTIFVEAVLRLARPERIDDPELVLIVGVLGLLVNVVGLLIFQDCAAWFACCLRGRSRRLQQRQQLAEGCVPGAFGGPQGAEDPRRAADPTAPGSDSAVTLRGTSVERKREKGATVFANVAGDSFNTQNEPEDMMKKEKKSEALNIRGVLLHVMGDALGSVVVVITAIIFYVLPLKSEDPCNWQCYIDPSLTVLMVIIILSSAFPLIKETAAILLQMVPKGVNMEELMSKLSAVPGISSVHEVHIWELVSGKIIATLHIKYPKDRGYQDASTKIREIFHHAGIHNVTIQFENVDLKEPLEQKDLLLLCNSPCISKGCAKQLCCPPGALPLAHVNGCAEHNGGPSLDTYGSDGLSRRDAREVAIEVSLDSCLSDHGQSLNKTQEDQCYVNRTHF
partner: B1 chain
B3: Probable proton-coupled zinc antiporter SLC30A3 (Homo sapiens), Q99726 (parent)
chain: B1 chain
partner: B2 chain

Variants of: B1
Conditions: with znt4_human SLC30A4, O14863

| Variant | effect of a mutation on the interaction |
| --- | --- |
| Y262F | decreasing interaction strength |
| Y257F | decreasing interaction strength |

Variants of: B2
Conditions: with znt3_human SLC30A3, Q99726

| Variant | effect of a mutation on the interaction |
| --- | --- |
| Y4F | decreasing interaction strength |

Variants of: B3
Conditions: with znt10_human SLC30A10, Q6XR72

| Variant | effect of a mutation on the interaction |
| --- | --- |
| Y262F | decreasing interaction strength |
| Y257F | decreasing interaction strength |
